# According to patent WO2023190851A1:
# Molecular target: SARS-CoV-2 Spike RBD, His Tag (B.1.1.529/Omicron) (SARS-CoV-2, Omicron B.1.1.529 (BA.1) lineage) (UniProt P0DTC2)
row,Substance,binding inhibition rate (%) at 2 μg/ml [%]
1,S309 (antibody),< 30
2,REGN10933 (antibody),< 30
3,LY_CoV555 (antibody),< 30
4,LY_CoV16 (antibody),< 30
5,AZD1061 (antibody),< 30
6,REGN10987 (antibody),< 30
7,AZD8895 (antibody),< 30
8,ADG2 (antibody),< 30
